# Test results as given in patent publication US20200223906A1 (Adimab, published 2020).
# Positions count from the first letter of the chain named.
# B1: ADI-18959 (antibody, V domains shown)
# VH: QVQLVQSGAEVKKPGASVRVSCKVYGHTLSELSMHWVRQGPEGGLEWMGAFDHEDGEGIYPQKFQGRITMTADISTDTAHMELRSLRSEDTAVYYCATPTPVGATDFWGQGTLVTVSS
# VL: DIRVTQSPSSLSASVGDRVTITCRASQSISSYLNWYQQKPGKAPKLLIYAASTLQRGGPSRFSGSGSGTDFTLSISSLQPEDFATYYCQQTYIIPYTFGQGTKLEIK
# notes: full-length IgG from yeast; also called Antibody Number 310; Ab # 310
# B2: ADI-18967 (antibody, V domains shown)
# VH: QVQLVQSGAEVKKPGASVKVACKVSGSSLTELSIQWVRLPPGKRLEWLGAFDAEDGAPIYSPKFQGRVTMTEDRSTETAYMEVTSLRSEDTALYYCATPLPAGALDKWGQGTLVTVSS
# VL: DIQMTQSPSSLSASVGDRVTISCRASQTISRYLNWYQVKPGTAPKLLIYAASSLQTGVPSRFSASGSGADFTLTISSLQPEDFATYHCQQTYIIPYTFGQGTKVDIK
# notes: full-length IgG from yeast; also called Antibody Number 315; Ab # 315
# B3: ADI-18884 (antibody, V domains shown)
# VH: EVQLVESGAEMKKPGASVKVSCKASGYTFTNYAIHWVRQAPGQSLEWMGWINAGNGNTQYSQKFQGRVTFTRDTSASTVYMDLSSLRSEDTAVYYCARGQIVVIPRANFWFDPWGQGTLVTVSS
# VL: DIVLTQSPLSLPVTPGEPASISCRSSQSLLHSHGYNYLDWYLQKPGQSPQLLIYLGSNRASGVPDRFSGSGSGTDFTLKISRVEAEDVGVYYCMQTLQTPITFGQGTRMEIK
# notes: full-length IgG from yeast; also called Antibody Number 240; Ab # 240
# B4: ADI-18940 (antibody, V domains shown)
# VH: QVQLVQSGAGVKKPGASVRVSCTASGYTFTDYFINWVRQAPGGGLEWMGWVNPLSGATRYAQNFAGRVTMTTDTSITTGYLDLRNLRLDDTAVYFCASQSSPYTPGAMDVWGQGTTVTVSS
# VL: DIVMTQSPSSLSASVGDRVSITCRTSQTISGYISWYQKKPGKAPKLLIYAASNMYSGVPSRFSGSESGTDFTLTITSLQPEDFATYFCQLNSGALFTFGPGTKVDIK
# notes: full-length IgG from yeast
# B5: ADI-18962 (antibody, V domains shown)
# VH: QVQLVQSGGGLVKPEGSLRLSCAASGFTFSSYSMNWVRQAPGKGLEWVSSISSSSSYIYYADSVKGRFTISRDNAKNSLYLQMNSLRAEDTAVYYCARVSTELGYYYMDVWGKGTTVTVSS
# VL: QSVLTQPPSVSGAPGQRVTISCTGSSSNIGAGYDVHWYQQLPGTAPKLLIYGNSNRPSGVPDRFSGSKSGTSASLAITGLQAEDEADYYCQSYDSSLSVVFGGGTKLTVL
# notes: full-length IgG from yeast
# B6: ADI-18907 (antibody, V domains shown)
# VH: QVQLVQSGPEVKKPGSSVKVSCKASGGTFSSYAITWVRQAPGQGLEWMGGIIPSFDRVDYSRNFKGRVTFTADKSANTAYMELTNVRSDDTAVYYCARGCCGAVAGFQHWGQGTGVTVSS
# VL: DIVLTQTPATLSLSPGETATLSCRASQSVTTYLAWYQQKPGQAPRLLIYDASNRATGVPTRFSGSGSGTDFTLTISSLEPEDYAIYYCQQRTTGVTFGGGTKVEIK
# notes: full-length IgG from yeast; also called Antibody Number 262; Ab # 262
# B7: ADI-18894 (antibody, V domains shown)
# VH: QVQLVQSGGGVVQPGRSLKHSCAASGFTFNNYAIHWVRQAPGKGLEWVAAISYDGSNEYYSNSVKGRFTISRDNSKYTLYLQMNSLRPEDTAVYYCARGASYYYVSSDLGYWGQGTLVTVSS
# VL: QPVLTQPPSVSGAPGQRVTISCTGSSSNIGSGYDVHWYQQLPGTAPKVVIYGNINRPSGVPERFSGSKSGTSASLAITGLQAEDEADYYCQSYDSLSASWVFGGGTKLTVL
# notes: full-length IgG from yeast; also called Antibody Number 249; Ab # 249
# B8: ADI-18931 (antibody, V domains shown)
# VH: EVQLVESGGGLQKPGRSLRLSCSASGFTFGDYAMSWFRQAPGKGLEWVGFIRSKAYVGTAEYAASVKGRFTISRDDSKSIAYLHMNSLKTEDTAVYYCTRDDILTGFYDRSYYYGIHVWGQGTTVTVSS
# VL: EIVMTQSPVTLSVSPGERATLSCRASQSVNSNLAWYQKKPGQAPRLLIYSASTRATGVPARFSGSGSGTEFTLTVSSLQSEDFAVYYCQQYDNWPPYTFGQGTKVEIK
# notes: full-length IgG from yeast; also called Antibody Number 285; Ab # 285
# B9: ADI-18943 (antibody, V domains shown)
# VH: QVQLQESGPGLVKPSETLSLTCSVSGASVTSREYYWGWIRQAPGKGLQWIASIHHSPFQSDGNPSLTSRVSSSVVTSKNQLALRLSSVTAADTAVYYCAGAFWEVWTGLYSPPFDFWGQGILVTVSS
# VL: EIVMTQSPGTLSLSPGERATLSCWASQTVSSGYLAWYQQKPGQAPRLLIYGASTRATDIPDRFSGSGSGTGFTLTISRLEPEDLAVYYCQQYSSSPLTFGGGTKVEIK
# notes: full-length IgG from yeast
# B10: ADI-18944 (antibody, V domains shown)
# VH: QVQLVQSGAEVKKPGASVKVSCKTSGYTFSNYGISWLRQAPGQGLEWMAWISPYNGNTKSAQRFQGRVIMTTDTSTRTAHMEVKSLRTDDTATYYCARDPAVDAIPMLDYWGQGTTVTVSS
# VL: DIQVTQSPLSLPVTLGQPASISCRSSQSLVYTDGNTYLSWFQQRPGQSPRRLIYRVSHRDSGVPDRFTGSGSGTDFTLIIRRVEAEDVGVYYCMQGTHWPLTFGGGTKVEIK
# notes: full-length IgG from yeast
# B11: ADI-18972 (antibody, V domains shown)
# VH: B10 VH with T116L
# VL: B10 VL with V4M, V109L
# notes: full-length IgG from yeast; also called Antibody Number 320; Ab # 320
# B12: ADI-18949 (antibody, V domains shown)
# VH: B10 VH with T116M
# VL: B10 VL with D1E, Q3V, V4L
# notes: full-length IgG from yeast
# B13: ADI-18957 (antibody, V domains shown)
# VH: EVQLLESGGGLVKPGESLRLSCAASGFTLSGYYMNWVRQAPGRGLEWVSSISGGSNYINYADSVKGRFTISRDNAKNSLYLQMNSLRVEDTAVYYCARVHVDLVTTIFGVDFDFWGQGTLVTVSS
# VL: QSVLTQPPSVSGAPGQRVTISCTGSSSNIGAGYDVHWYQQLPGTAPKLLIYGNTNRPAGVPDRFSGSKSGSSASLAITGLQAEDEADYYCQSYDSSLSGAIFGGGTKLTVL
# notes: full-length IgG from yeast
# B14: ADI-18956 (antibody, V domains shown)
# VH: QVQLVQSGAELKKPGSSVKVSCKASADTFKSYAINWVRQAPGQGLEWMGEFIPIFGVSPSAQKFQGRVTITADRSTSTAYMELSSLKSDDSAIYYCATRLYTLGSPFDNWGQGTTVTVSS
# VL: QPVLTQPRSVSGSPGQSVTISCTGTSSDVGDYDYVSWYQHLPGEVPKLIVYNVIKRPSGVPDRFSGSKSGNTASLTISGLQAEDEADYYCCSYAGRYIYVFGSGTKLTVL
# notes: full-length IgG from yeast
# B15: ADI-18910 (antibody, V domains shown)
# VH: QVQLVQSGAEVKKPGSSVKVSCKASGGTFSSYAISWVRQAPGQGLEWMGGIIPMFDIVDYAQKFQGRVTITADESTNTAYMELTSLRSEDTAVYYCARTAALGPPGTIVGYMDVWGKGTTVTVSS
# VL: DIVMTQSPLSLPVTPGEPASISCRSSQSLLQSNGYNYLDWYLQKPGQAPQLLIYLGSNRASGVPDKFSGSGSGTDFTLKISRVEAEDVGVYYCMQTLQTPWTFGQGTKVEIK
# notes: full-length IgG from yeast; also called Antibody Number 265; Ab # 265
# B16: ADI-18965 (antibody, V domains shown)
# VH: QVQLVQSGAEVKKPGASVKISCKASGYPFSSYPMHWVRQAPGQRLEWMGWINVDNENTKYSWKFRGRVTITRDTSASTVYMELSSLISEDTAVYYCGRDWDGAIRVLDYWGQGTLVTVSS
# VL: DIVMTQTPDSLAVSLGERATITCKSSQSVLFSSDNKNYLAWYQQKPGQPPKLLIYWASIRESGVPDRFGGSGSGTHFTLTITSVQAADVAVYYCQQYYGNFPTFGQGTRLEIK
# B17: ADI-18905 (antibody, V domains shown)
# VH: EVQLVESGPTLVKPSETLSLTCVVSGGSVYRSSNYWAWIRQPPGKGLEWIGSVYHSGNPYSNPSLQSRVSVSIDTSKNQFSLKLYSVTAADSAIYYCACKRADADDVDYVAGLTGFPWYFDVWGRGTLVTVSS
# VL: EIVLTQSPSTLSASVGDRVTITCRASQSISSWLAWYQQKPGKTPKLLIYKASTLESGVPSRFSGSGSGTEFTLTISSLQPDDFATYYCQQYHVYFPLTFGGGTKVEIK
# B18: ADI-18901 (antibody, V domains shown)
# VH: EVQLVESGAEVKRPGASVKISCKASEYAFTAHYLHWVRQAPDQGLEWMGWISPKSGGTNYAQKFHGRVSMTSDTSISTVYMELSSLTSDDTAVYYCARSSLVGASPNFDFWGQGTLVTVSS
# VL: QSVLTQPPSVSAAPGQRVTISCSGSSSNIGNNYVSWYQQLPGTTPKVLIYDNNQRPSGIPDRFSGSKSGTSATLAISGLQTGDEAVYYCGTWDASLSAAMVFGGGTKLTVL
# B19: ADI-18925 (antibody, V domains shown)
# VH: QVQLVESGGGVVQPGRSLRLSCAASGFPFSLYAMHWVRQAPGKGLEWVAFISYDGSNKYYADSVKGRFTISRDSSKNTLYLQMDSLTPEDTAVYYCAKPIVGPTTGYFDYWGPGTLVTVSS
# VL: EIVLTQSPATLSLSPGERATLSCRASQSVSSYLAWYQQKPGQAPRLLIYDASNRATGIPARFSGSGSGTDFTLTISSLEPEDFAVYYCQQRSNWYTFGQGTKVEIK
# B20: ADI-18929 (antibody, V domains shown)
# VH: QVQLVQSGGGLVKPGGSLRLSCAASGFTFNDYYMNWIRQAPGKGLEWVSYISSSGETKYYADSVKGRFTISRDNAKNSLYLEMNSLRVEDTAVYYCARDAVIVVGPVAVHYQYYADVWGKGTTVTVSS
# VL: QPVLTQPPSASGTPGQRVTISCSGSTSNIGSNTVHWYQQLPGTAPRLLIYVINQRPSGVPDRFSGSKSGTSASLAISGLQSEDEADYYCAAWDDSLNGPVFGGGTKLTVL
# Target: T1, RSV F subtype A, furin-cleaved ectodomain stabilized in the prefusion conformation (DS-Cav1) (Respiratory syncytial virus subtype A, UniProt P03420 26-524)
# T1 construct: extracellular domain; Trimeric soluble antigen; also called Prefusion subtype A
# Assay: BLI, IgG on AHQ sensor, 100 nM antigen
row,Binder,Kd
1,B1,4680 pM
2,B2,809 pM

# Target: T2, RSV F subtype B, furin-cleaved ectodomain stabilized in the prefusion conformation (DS-Cav1) (Respiratory syncytial virus subtype B)
# T2 construct: extracellular domain; Trimeric soluble antigen; also called Prefusion subtype B
# Assay: BLI, IgG on AHQ sensor, 100 nM antigen
row,Binder,Kd
1,B3,204 pM
2,B4,1560 pM
3,B5,22800 pM
4,B6,204 pM
5,B7,327 pM
6,B8,488 pM
7,B9,725 pM
8,B10,337 pM
9,B11,368 pM
10,B12,308 pM
11,B13,324 pM
12,B14,224 pM
13,B15,10600 pM

# Target: RSV F protein of subtype B (18537) on recombinant mKate-RSV virus (Respiratory syncytial virus subtype B …, UniProt P13843 26-574)
# Assay: cell-based or functional assay
row,Binder,Neut IC50 (µg/ml) subtype B
1,B3,0.239 µg/mL
2,B16,6.89 µg/mL
3,B4,0.063 µg/mL
4,B5,> 10 µg/mL
5,B17,3.68 µg/mL
6,B6,> 10 µg/mL
7,B7,0.123 µg/mL
8,B8,> 10 µg/mL
9,B9,0.043 µg/mL
10,B18,5.76 µg/mL
11,B10,0.074 µg/mL
12,B11,0.107 µg/mL
13,B12,0.076 µg/mL
14,B19,> 10 µg/mL
15,B1,2.26 µg/mL
16,B13,6.08 µg/mL
17,B20,0.369 µg/mL
18,B2,3.65 µg/mL
19,B14,> 10 µg/mL
20,B15,0.767 µg/mL

# Target: RSV F protein of subtype A (strain A2) on recombinant mKate-RSV virus (Respiratory syncytial virus subtype A …, UniProt P03420 26-574)
# Assay: cell-based or functional assay
row,Binder,Neut IC50 (µg/ml) subtype A
1,B3,0.073 µg/mL
2,B16,3.02 µg/mL
3,B4,0.023 µg/mL
4,B5,4.44 µg/mL
5,B17,0.685 µg/mL
6,B6,3.3 µg/mL
7,B7,0.345 µg/mL
8,B8,> 10 µg/mL
9,B9,0.027 µg/mL
10,B18,5.65 µg/mL
11,B10,0.026 µg/mL
12,B11,0.016 µg/mL
13,B12,0.04 µg/mL
14,B19,> 10 µg/mL
15,B1,7.21 µg/mL
16,B13,1.34 µg/mL
17,B20,0.261 µg/mL
18,B2,6.74 µg/mL
19,B14,> 10 µg/mL
20,B15,> 10 µg/mL
